We go through four molecules from patent US12269859B2, “Synthetic immune receptors and methods of use thereof” (Angeles Therapeutics, Inc., priority 2016, dated 2025).

The subject of this experiment is target antigen-expressing cell line. Kind of experiment: Jurkat NFAT-GFP assay, coculture with target cell lines expressing the respective target antigen (summary Table 10A). The format is cell-based, human. More on the design: key: The signs +/−, +, 2+ etc. after the name of the cell lines indicate the relative degree of positivity on the Jurkat-NFAT-GFP assay as measured by the % GFP positive cells; +: relative degree of positivity on the Jurkat-NFAT-GFP assay as measured by the % GFP positive cells; 2+: relative degree of positivity on the Jurkat-NFAT-GFP assay as measured by the % GFP positive cells. Particulars: relative % GFP positive cells; for NFAT-GFP ASSAY Positive Cell lines: RAJI: SIR-expressing Jurkat-NFAT-GFP cells cocultured with RAJI. How it is done: (B) Induction of NFAT promoter driven GFP expression. The control vector- and SIR-expressing Jurkat-NFAT-GFP cocultured for 4-24 hours with the target antigen-expressing cell line (described above) and their ability to bind to the target antigen is assayed by measuring induction of GFP expression using Flow Cytometry. Cellular supernatant is collected and assayed for the induction of cytokines (e.g., IL2).
Jurkat NFAT-GFP Assay For Synthetic Immune Receptors. The Jurkat-NFAT-GFP cells are engineered in such a way that the IL-2 promoter, which carries NFAT binding sites, is cloned upstream of the GFP gene. These cells have been used to study signaling via TCR and CAR. The different SIRs were stably expressed in Jurkat NFAT-GFP cells by lentiviral mediated gene transfer, followed by selection with puromycin. The SIR-expressing Jurkat-NFAT-GFP cells were cocultured with the target cells at E:T ratio of approximately 1:2 for approximately 4 hours to 18 hours. When the interaction between SIRs and their target antigen results in activation of the NFAT pathway, GFP expression is induced.
Induction of GFP expression by coculturing of Jurkat-NFAT-GFP cells expressing different SIR constructs and the different target cells was studied essentially as described previously (Wu, Roybal, Puchner, Onuffer, & Lim, 2015). GFP expression was monitored by FACS analysis. A few representative examples of this assay are shown in the FIG. 13A-B. In panel A, control Jurkat-NFAT-GFP cells or those expressing SIRs targeting CD19 (clone ID 051716-I08), MPL (Clone ID: 040716-A07) and BCMA (Clone ID: 011116-A07) were incubated with RAJI (top), HEL (middle) or U266 (bottom) cells, respectively. […] In panel B, Jurkat cells expressing SIR targeting CDH6 (Clone ID: 051716-J05), CD276 (Clone ID: 050516-Q06) and Her2/neu (Clone ID: 050516-I03) were incubated with SKOV3 (top) and […] (middle and bottom) cells, respectively. […] The Jurkat-NFAT-GFP cells were engineered to express different SIRs targeting other antigens and the experiment repeated upon coculture with the target cells expressing their respective target antigen. The Jurkat-NFAT-GFP (parental) cells were used as control. The names of different SIRs, their SEQ ID NOs, component antigen binding domains and TCR chains can be determined by reference to Tables 7A-7H. A SIR is considered positive in the assay in case the SIR expressing Jurkat-NFAT-GFP cells show greater % GFP positive cells when cultured with the target cell line as compared to parental Jurkat-NFAT-GFP cells. […] The signs +/−, +, 2+ etc. after the name of the cell lines indicate the relative degree of positivity on the Jurkat-NFAT-GFP assay as measured by the % GFP positive cells after culture of the SIR expressing Jurkat-NFAT-GFP cells with that cell line. […] In addition, great diversity of response against the same target cell line is observed with Jurkat cells expressing SIRs containing different antigen binding domains targeting the same antigen (e.g., SIRs having antigen binding domains derived form different CD19 antibodies) even when the SIRs share the same TCR chains and linkers. Finally, Jurkat cells expressing SIRs targeting different antigens (e.g. CD19 vs CD20) show a diversitiy of response when exposed to the same target cell line. Thus, a diverse immune response can be generated against a single target cell by combining SIRs with different TCR chains, linkers, antigen binding domains and target specificity. Table 10A also summarizes the results of GLuc based T cell cytotoxicity assay observed with different SIRs when exposed to their target cell lines. […]

B1: 101216-H03 (protein)
chain: MALPVTALLLPLALLLHAARPEIVMTQSPATLSLSPGERATLSCRASQDISKYLNWYQQKPGQAPRLLIYHTSRLHSGIPARFSGSGSGTDYTLTISSLQPEDFAVYFCQQGNTLPYTFGQGTKLEIKLEGKPIPNPLLGLDSTGSGEDLKNVFPPEVAVFEPSKAEIAHTQKATLVCLATGFYPDHVELSWWVNGKEVHSGVCTDPQPLKEQPALNDSRYCLSSRLRVSATFWQNPRNHFRCQVQFYGLSENDEWTQDRAKPVTQIVSAEAWGRADCGITSASYHQGVLSATILYEILLGKATLYAVLVSALVLMAMVKRKDSRGRAKRSGSGATNFSLLKQAGDVEENPGPTSMDWIWRILFLVGAATGAHSFEDIQMTQTTSSLSASLGDRVTISCRASQDISKYLNWYQQKPDGTVKLLIYHTSRLHSGVPSRFSGSGSGTDYSLTISNLEQEDIATYFCQQGNTLPYTFGGGTKLEITTREQKLISEEDGSGIQNPDPAVYQLRDSKSSDKSVCLFTDFDSQTNVSQSKDSDVYITDKCVLDMRSMDFKSNSAVAWSNKSDFACANAFNNSIIPEDTFFPSSDVPCDVKLVEKSFETDTNLNFQNLSVIGFRILLLKVAGFNLLMTLRLWSSRAKRSGSGVKQTLNFDLLKLAGDVESNPGPSRGHMTEYKPTVRLATRDDVPRAVRTLAAAFADYPATRHTVDPDRHIERVTELQELFLTRVGLDIGKVWVADDGAAVAVWTTPESVEAGAVFAEIGPRMAELSGSRLAAQQQMEGLLAPHRPKEPAWFLATVGVSPDHQGKGLGSAVVLPGVEAAERAGVPAFLETSAPRNLPFYERLGFTVTADVEVPEGPRTWCMTRKPGA
Take B1: the “NFAT-GFP ASSAY Positive Cell lines: RAJI” value was “RAJI(2+), NALM6(2+)”. Besides, the “NFAT-GFP ASSAY Positive Cell lines: NALM6” value (SIR-expressing Jurkat-NFAT-GFP cells cocultured with NALM6) is reported as “RAJI(2+), NALM6(2+)”.

B2: 012617-N02 (protein)
chain: MALPVTALLLPLALLLHAARPLEGKPIPNPLLGLDSTGSGEDLKNVFPPEVAVFEPSKAEIAHTQKATLVCLATGFYPDHVELSWWVNGKEVHSGVCTDPQPLKEQPALNDSRYCLSSRLRVSATFWQNPRNHFRCQVQFYGLSENDEWTQDRAKPVTQIVSAEAWGRADCGITSASYHQGVLSATILYEILLGKATLYAVLVSALVLMAMVKRKDSRGRAKRSGSGATNFSLLKQAGDVEENPGPTSMALPVTALLLPLALLLHAARPQSVVTQPPSVSAAPGQKVTISCSGSSSNIGNNYVSWYQQLPGTAPKLLIYDNNKRPSGIPDRFSGSKSGTSATLGITGLQTGDEADYYCGTWDGSLYTMLFGGGTKLTVLGGGGSGGGGSGGGGSEVQLVESGGGLVKPGGSLRLSCAASGFTFSNAWMSWVRQAPGKGLEWVGFIRSKAYGGTTEYAASVKGRFTISRDDSKSIAYLQMNNLKTEDTAVYYCARDGLYSSSWYDSDYWGQGTLVTVSSTREQKLISEEDGSGIQNPDPAVYQLRDSKSSDKSVCLFTDFDSQTNVSQSKDSDVYITDKCVLDMRSMDFKSNSAVAWSNKSDFACANAFNNSIIPEDTFFPSSDVPCDVKLVEKSFETDTNLNFQNLSVIGFRILLLKVAGFNLLMTLRLWSSRAKRSGSGVKQTLNFDLLKLAGDVESNPGPSRGHMTEYKPTVRLATRDDVPRAVRTLAAAFADYPATRHTVDPDRHIERVTELQELFLTRVGLDIGKVWVADDGAAVAVWTTPESVEAGAVFAEIGPRMAELSGSRLAAQQQMEGLLAPHRPKEPAWFLATVGVSPDHQGKGLGSAVVLPGVEAAERAGVPAFLETSAPRNLPFYERLGFTVTADVEVPEGPRTWCMTRKPGA
B2: the “NFAT-GFP ASSAY Positive Cell lines: HepG2” value (SIR-expressing Jurkat-NFAT-GFP cells cocultured with HepG2) is reported as “HepG2 (+/−)”.

B3: 091216-K03 (protein)
chain: MALPVTALLLPLALLLHAARPLEGKPIPNPLLGLDSTGSGEDLKNVFPPEVAVFEPSKAEIAHTQKATLVCLATGFYPDHVELSWWVNGKEVHSGVCTDPQPLKEQPALNDSRYCLSSRLRVSATFWQNPRNHFRCQVQFYGLSENDEWTQDRAKPVTQIVSAEAWGRADCGITSASYHQGVLSATILYEILLGKATLYAVLVSALVLMAMVKRKDSRGRAKRSGSGATNFSLLKQAGDVEENPGPTSTMALPVTALLLPLALLLHAARPEIVMTQSPATLSLSPGERATLSCRASQDISKYLNWYQQKPGQAPRLLIYHTSRLHSGIPARFSGSGSGTDYTLTISSLQPEDFAVYFCQQGNTLPYTFGQGTKLEIKGGGGSGGGGSGGGGSQVQLQESGPGLVKPSETLSLTCTVSGVSLPDYGVSWIRQPPGKGLEWIGVIWGSETTYYNSSLKSRVTISKDNSKNQVSLKLSSVTAADTAVYYCAKHYYYGGSYAMDYWGQGTLVTVSSTREQKLISEEDGSGIQNPDPAVYQLRDSKSSDKSVCLFTDFDSQTNVSQSKDSDVYITDKCVLDMRSMDFKSNSAVAWSNKSDFACANAFNNSIIPEDTFFPSSDVPCDVKLVEKSFETDTNLNFQNLSVIGFRILLLKVAGFNLLMTLRLWSSRAKRSGSGVKQTLNFDLLKLAGDVESNPGPSRGHMTEYKPTVRLATRDDVPRAVRTLAAAFADYPATRHTVDPDRHIERVTELQELFLTRVGLDIGKVWVADDGAAVAVWTTPESVEAGAVFAEIGPRMAELSGSRLAAQQQMEGLLAPHRPKEPAWFLATVGVSPDHQGKGLGSAVVLPGVEAAERAGVPAFLETSAPRNLPFYERLGFTVTADVEVPEGPRTWCMTRKPGA
modifications: Synthetic Immune Receptor (SIR)
For B3, the “NFAT-GFP ASSAY Positive Cell lines: RAJI” value is reported as “RAJI (+/−)”.

B4: 072516-B05 (protein)
chain: MALPVTALLLPLALLLHAARPEIVMTQSPATLSLSPGERATLSCRASQDISKYLNWYQQKPGQAPRLLIYHTSRLHSGIPARFSGSGSGTDYTLTISSLQPEDFAVYFCQQGNTLPYTFGQGTKLEIKLEGKPIPNPLLGLDSTGSGEDLKNVFPPEVAVFEPSKAEIAHTQKATLVCLATGFYPDHVELSWWVNGKEVHSGVCTDPQPLKEQPALNDSRYCLSSRLRVSATFWQNPRNHFRCQVQFYGLSENDEWTQDRAKPVTQIVSAEAWGRADCGITSASYHQGVLSATILYEILLGKATLYAVLVSALVLMAMVKRKDSRGRAKRSGSGATNFSLLKQAGDVEENPGPTSMDWIWRILFLVGAATGAHSFEQVQLQESGPGLVKPSETLSLTCTVSGVSLPDYGVSWIRQPPGKGLEWIGVIWGSETTYYNSSLKSRVTISKDNSKNQVSLKLSSVTAADTAVYYCAKHYYYGGSYAMDYWGQGTLVTVSSTREQKLISEEDGSGIQNPDPAVYQLRDSKSSDKSVCLFTDFDSQTNVSQSKDSDVYITDKCVLDMRSMDFKSNSAVAWSNKSDFACANAFNNSIIPEDTFFPSSDVPCDVKLVEKSFETDTNLNFQNLSVIGFRILLLKVAGFNLLMTLRLWSSRAKRSGSGVKQTLNFDLLKLAGDVESNPGPSRGHMTEYKPTVRLATRDDVPRAVRTLAAAFADYPATRHTVDPDRHIERVTELQELFLTRVGLDIGKVWVADDGAAVAVWTTPESVEAGAVFAEIGPRMAELSGSRLAAQQQMEGLLAPHRPKEPAWFLATVGVSPDHQGKGLGSAVVLPGVEAAERAGVPAFLETSAPRNLPFYERLGFTVTADVEVPEGPRTWCMTRKPGA
modifications: Synthetic Immune Receptor (SIR)
B4: the “NFAT-GFP ASSAY Positive Cell lines: RAJI” value is recorded as “RAJI(+/−)”.
